In experiment [1] the target is each construct (cells transfected with either wild type or the PCSK9 binding-deficient LDLR mRNAs). The experiment can be described thus: flow cytometry, half-maximal cell association of BODIPY-LDL on transfected HEK293 cells. Background: A flow cytometer gives signals particle by particle.
The target in experiment [2] is mouse LDLR mutant 1 (LDLR_N317A, K832R, C841A) (mouse) (UniProt P35951). The experiment can be described thus: cell-based or functional assay.
Experiment [3] deals with wild type mouse LDLR (mouse) (UniProt P35951). The experiment can be described thus: cell-based or functional assay.

“BODIPY-labeled LDL (low density lipoprotein) (from UniProt P04114 28-4563) (ligand)” showed an EC50 in experiment [1] of 0.6 to 0.7 ng/mL.

B1: mouse IDOL (inducible degrader of the LDLR) (enzyme, UniProt Q8BM54 1-445, looked up)
chain: MLCYVTRPDAVLMEVEVEAKANGEDCLNQVCRRLGIIEVDYFGLQFTGSKGESLWLNLRNRISQQMDGLAPYRLKLRVKFFVEPHLILQEQTRHIFFLHIKESLLAGHLQCSPEQAVELSALLAQTKFGDYNQNTAQYSYEDLCEKELSSSTLNSIVAKHKELEGISQASAEYQVLQIVSAMENYGIEWHAVRDSEGQKLLIGVGPEGISICKEDFSPINRIAYPVVQMATQSGKNVYLTVTKESGNSIVLLFKMISTRAASGLYRAITETHAFYRCDTVTSAVMMQYSRDLKGHLASLFLNENINLGKKYVFDIKRTSKEVYDHARRALYNAGVVDLVSRSDQSPPSSPLKSSDSSMSCSSCEGLSCQQTRVLQEKLRKLKEAMLCMACCEEEINSTFCPCGHTVCCESCAAQLQSCPVCRSRVEHVQHVYLPTHTSLLNLTVI
B1: in experiment [2], the Average LDLR MCF, HeLa cells, co-transfected with IDOL (with Luciferase: 8369) was 7050 MCF; the Average LDLR MCF, Hepa1-6, co-transfected with IDOL (with Luciferase: 14080) came to 8860 MCF; the LDLR expression as percent of the baseline, HeLa cells (% of the baseline) was 84.2; the LDLR expression as percent of the baseline, Hepa1-6 (% of the baseline) was found to be 62.9. In experiment [3], the Average LDLR MCF, HeLa cells, co-transfected with IDOL (with Luciferase: 5773) stood at 2920 MCF; the Average LDLR MCF, Hepa1-6, co-transfected with IDOL (with Luciferase: 5272) came out at 881 MCF; the LDLR expression as percent of the baseline, HeLa cells (% of the baseline) is 50.5; the LDLR expression as percent of the baseline, Hepa1-6 (% of the baseline) came out at 16.7. The same molecule returned an LDLR expression as percent of the baseline, Hepa1-6 cells given no LDLR mRNA (luciferase row of Table 15) (% of the baseline) in experiment [3] of 62.3.

As a reminder, the EC50 is the concentration at which the effect is half-maximal. A low value points to higher potency in that assay.

Values taken from US20190248864A1.
